Patent publication US20070244048A1 (published 2007)
Where two headings read alike, the source gives them in different places. No end group written: not given here.

Columns and labels:
human NMUR1 [1] = target: T1, human NMUR1 (human, UniProt Q9HB89 1-426); assay: cell-based or functional assay
T1 sequence (looked up): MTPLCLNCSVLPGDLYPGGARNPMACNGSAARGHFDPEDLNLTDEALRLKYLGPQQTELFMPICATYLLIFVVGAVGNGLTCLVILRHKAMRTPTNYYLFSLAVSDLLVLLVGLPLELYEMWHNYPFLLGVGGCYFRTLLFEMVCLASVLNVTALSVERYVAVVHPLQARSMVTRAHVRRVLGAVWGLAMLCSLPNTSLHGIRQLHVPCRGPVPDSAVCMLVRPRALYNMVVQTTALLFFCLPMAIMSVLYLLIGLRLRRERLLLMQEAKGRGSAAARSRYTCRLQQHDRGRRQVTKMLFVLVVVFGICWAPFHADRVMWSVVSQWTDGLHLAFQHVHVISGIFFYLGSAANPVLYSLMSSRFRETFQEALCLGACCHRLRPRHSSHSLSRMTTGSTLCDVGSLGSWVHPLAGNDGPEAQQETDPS

human NMUR2 [2] = target: T2, human NMUR2 (human, UniProt Q9GZQ4 1-415); assay: cell-based or functional assay
rat NMUR1-ATG [3] = target: T3, rat NMUR1-ATG (rat, UniProt Q9JJI5 1-425); assay: cell-based or functional assay
T3 sequence (looked up): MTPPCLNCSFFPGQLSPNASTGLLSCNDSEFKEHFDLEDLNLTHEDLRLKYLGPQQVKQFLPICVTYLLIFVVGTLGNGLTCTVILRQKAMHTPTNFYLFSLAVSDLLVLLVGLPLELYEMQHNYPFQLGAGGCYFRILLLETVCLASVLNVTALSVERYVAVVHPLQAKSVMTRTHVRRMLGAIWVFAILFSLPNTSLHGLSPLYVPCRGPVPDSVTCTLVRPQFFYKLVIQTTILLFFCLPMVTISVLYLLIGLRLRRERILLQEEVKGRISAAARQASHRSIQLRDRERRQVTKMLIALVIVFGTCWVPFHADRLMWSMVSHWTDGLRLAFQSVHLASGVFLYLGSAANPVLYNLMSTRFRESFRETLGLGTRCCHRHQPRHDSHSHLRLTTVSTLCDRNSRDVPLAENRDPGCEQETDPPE

mouse NMUR2 [4] = target: T4, mouse NMUR2 (mouse, UniProt Q8BZ39 1-395); assay: cell-based or functional assay
rat NMUR1-TTG [5] = target: T5, rat NMUR1-TTG (rat, UniProt Q9JJI5 1-425); assay: cell-based or functional assay
T5 sequence (looked up): T3 sequence (looked up)

mouse NMUR1-CTG [6] = target: T6, mouse NMUR1-CTG (mouse, UniProt O55040 1-428); assay: cell-based or functional assay
T6 sequence (looked up): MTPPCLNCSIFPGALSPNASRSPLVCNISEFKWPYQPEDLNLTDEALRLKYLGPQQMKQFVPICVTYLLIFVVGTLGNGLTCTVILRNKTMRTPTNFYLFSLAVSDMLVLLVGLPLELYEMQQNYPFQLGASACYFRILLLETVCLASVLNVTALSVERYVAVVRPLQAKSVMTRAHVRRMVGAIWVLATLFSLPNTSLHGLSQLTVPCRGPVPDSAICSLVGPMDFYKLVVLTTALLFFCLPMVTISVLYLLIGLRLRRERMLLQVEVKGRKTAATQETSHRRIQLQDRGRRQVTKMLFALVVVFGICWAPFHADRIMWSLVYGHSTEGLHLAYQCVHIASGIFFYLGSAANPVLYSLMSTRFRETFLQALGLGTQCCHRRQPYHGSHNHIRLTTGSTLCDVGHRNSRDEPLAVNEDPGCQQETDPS

rat NMUR2 [7] = target: T7, rat NMUR2 (rat, UniProt Q9ESQ4 1-395); assay: cell-based or functional assay
mouse NMUR1-ATG [8] = target: T8, mouse NMUR1-ATG (mouse, UniProt O55040 1-428); assay: cell-based or functional assay
T8 sequence (looked up): T6 sequence (looked up)

mouse NMUR2 [9] = target: T4, mouse NMUR2; assay: 125I-hNMU-25 displacement, cell membranes
rat NMUR1-TTG [10] = target: T5, rat NMUR1-TTG; assay: 125I-hNMU-25 displacement, cell membranes
mouse NMUR1-ATG [11] = target: T8, mouse NMUR1-ATG; assay: 125I-hNMU-25 displacement, cell membranes
human NMUR1 [12] = target: T1, human NMUR1; assay: cell-based or functional assay; remark: listed apart in the source
human NMUR2 [13] = target: T2, human NMUR2; assay: cell-based or functional assay; remark: listed apart in the source
human NMUR1 [14] = target: T1, human NMUR1; assay: 125I-hNMU-25 displacement, cell membranes
human NMUR2 [15] = target: T2, human NMUR2; assay: 125I-hNMU-25 displacement, cell membranes
rat NMUR1-ATG [16] = target: T3, rat NMUR1-ATG; assay: 125I-hNMU-25 displacement, cell membranes
mouse NMUR2 [17] = target: T4, mouse NMUR2; assay: 125I-hNMU-25 displacement, cell membranes; remark: listed apart in the source
rat NMUR1-TTG [18] = target: T5, rat NMUR1-TTG; assay: 125I-hNMU-25 displacement, cell membranes; remark: listed apart in the source
mouse NMUR1-CTG [19] = target: T6, mouse NMUR1-CTG; assay: 125I-hNMU-25 displacement, cell membranes
rat NMUR2 [20] = target: T7, rat NMUR2; assay: 125I-hNMU-25 displacement, cell membranes
mouse NMUR1-ATG [21] = target: T8, mouse NMUR1-ATG; assay: 125I-hNMU-25 displacement, cell membranes; remark: listed apart in the source

T4 sequence (Q8BZ39 whole entry): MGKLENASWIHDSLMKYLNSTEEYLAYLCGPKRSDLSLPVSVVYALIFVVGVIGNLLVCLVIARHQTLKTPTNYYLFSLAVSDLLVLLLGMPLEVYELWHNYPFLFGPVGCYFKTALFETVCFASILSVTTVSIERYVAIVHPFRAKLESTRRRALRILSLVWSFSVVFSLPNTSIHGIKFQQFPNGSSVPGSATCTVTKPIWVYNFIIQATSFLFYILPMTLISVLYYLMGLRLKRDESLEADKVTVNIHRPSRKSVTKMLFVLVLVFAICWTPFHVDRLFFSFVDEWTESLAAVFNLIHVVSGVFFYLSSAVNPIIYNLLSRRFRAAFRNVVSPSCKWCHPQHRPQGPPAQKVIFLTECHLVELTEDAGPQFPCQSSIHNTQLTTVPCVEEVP
T2 sequence (Q9GZQ4 whole entry): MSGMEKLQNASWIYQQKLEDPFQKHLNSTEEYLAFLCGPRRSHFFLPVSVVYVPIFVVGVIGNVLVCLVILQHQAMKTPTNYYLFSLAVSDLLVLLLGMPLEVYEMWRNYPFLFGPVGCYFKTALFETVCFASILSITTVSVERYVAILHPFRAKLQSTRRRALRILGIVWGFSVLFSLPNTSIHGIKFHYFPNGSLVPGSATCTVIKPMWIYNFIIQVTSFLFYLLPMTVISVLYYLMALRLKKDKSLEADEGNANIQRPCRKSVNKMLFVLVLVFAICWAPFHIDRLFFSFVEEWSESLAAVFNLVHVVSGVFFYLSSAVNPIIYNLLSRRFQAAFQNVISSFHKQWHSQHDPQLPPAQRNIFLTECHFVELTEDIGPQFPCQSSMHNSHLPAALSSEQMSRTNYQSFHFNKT
T7 sequence (Q9ESQ4 whole entry): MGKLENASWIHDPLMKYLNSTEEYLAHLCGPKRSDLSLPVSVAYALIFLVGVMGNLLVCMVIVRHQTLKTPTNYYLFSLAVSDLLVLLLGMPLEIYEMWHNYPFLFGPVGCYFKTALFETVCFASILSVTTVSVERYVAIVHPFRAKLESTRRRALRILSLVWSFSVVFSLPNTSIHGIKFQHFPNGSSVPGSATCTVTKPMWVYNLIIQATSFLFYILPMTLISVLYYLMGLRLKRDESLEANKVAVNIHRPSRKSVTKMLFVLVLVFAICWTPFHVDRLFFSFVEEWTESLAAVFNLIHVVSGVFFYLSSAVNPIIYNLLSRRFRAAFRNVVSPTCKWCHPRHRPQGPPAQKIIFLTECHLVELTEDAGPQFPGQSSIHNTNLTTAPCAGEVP

Binder: FRVDEEFQSPFASQSRGYFLFRPRN-NH2 (also called hNMU-25; native hNMU) [human NMU-25]
- IC50 (nM), functional (human NMUR1 [1]): 0.2 nM
- IC50 (nM), functional (human NMUR2 [2]): 0.8 nM
- IC50 (nM), functional (rat NMUR1-ATG [3]): 1.3 nM
- IC50 (nM), functional (mouse NMUR2 [4]): 0.2 nM
- IC50 (nM), functional (rat NMUR1-TTG [5]): 1 nM
- IC50 (nM), functional (mouse NMUR1-CTG [6]): 2.9 nM
- IC50 (nM), functional (rat NMUR2 [7]): 1.6 nM
- IC50 (nM), functional (mouse NMUR1-ATG [8]): 0.9 nM
- IC50 (mouse NMUR2 [9]): 0.2 nM
- IC50 (rat NMUR1-TTG [10]): 0.2 nM
- IC50 (mouse NMUR1-ATG [11]): 0.4 nM
- % activity (human NMUR1 [12]): 100%
- EC50 (human NMUR1 [12]): 5.5 nM
- % activity (human NMUR2 [13]): 100%
- EC50 (human NMUR2 [13]): 1.5 nM
- IC50 (human NMUR1 [14]): 0.14 nM
- IC50 (human NMUR2 [15]): 0.056 nM
- IC50 (rat NMUR1-ATG [16]): 1.2 nM
- IC50 (mouse NMUR2 [17]): 0.2 nM
- IC50 (rat NMUR1-TTG [18]): 0.2 nM
- IC50 (mouse NMUR1-CTG [19]): 0.15 nM
- IC50 (rat NMUR2 [20]): 0.6 nM
- IC50 (mouse NMUR1-ATG [21]): 0.4 nM
